Here are results for 1 molecule from patent publication US20230242653A1 (TENEOBIO, published 2023).

Assay [1] concerns the target cynomolgus IL-2Rβγ receptor (IL-2RB / IL-2RG) on cynomolgus T-cells (cynomolgus, UniProt Q38J85 27-551). Nature of the assay: flow cytometry, cynomolgus CD8+ T-cells, anti-human IgG-PE detection, gMFI as fold over secondary-only background. How it is done:
All washes and dilutions of cells, antibodies, and reagents were performed using flow buffer (1X PBS, 1% BSA, 0.1% NaN3, pH 7.4). Staining was performed in a round-bottom 96-well plate (Corning) seeded at 100,000 cells/well and all incubations were performed at 4° C. or on ice. […] The cells were washed twice with 200 µL flow buffer. The cells were then incubated for 30 minutes with detection antibody (Goat F(ab′)2 Anti-Human IgG-PE, Southern Biotech) at 0.625 µg/mL in flow buffer. Following 2 more washes, the cells were resuspended in a final volume of 150 µL of flow buffer. The cells were analyzed on a BD FACSCelesta or a Guava easyCyte 8-HT flow cytometer. At least 3000 events were collected, and PE geometric mean fluorescence intensity was plotted as a fold over background (cells incubated with secondary detection antibody only). In some secondary screens involving human or cynomolgus PBMCs, an additional CD4 antibody (BioLegend) and/or CD8 antibody (BioLegend) was included to further characterize cell binding.
A general note: Flow cytometry measures light scatter and fluorescence of single cells or particles in a stream.

For a further assay, the target named is T1, IL-4R (Sino Biological) (UniProt P24394 26-232).
T1 construct: also called IL-4Ra
T1 sequence (looked up): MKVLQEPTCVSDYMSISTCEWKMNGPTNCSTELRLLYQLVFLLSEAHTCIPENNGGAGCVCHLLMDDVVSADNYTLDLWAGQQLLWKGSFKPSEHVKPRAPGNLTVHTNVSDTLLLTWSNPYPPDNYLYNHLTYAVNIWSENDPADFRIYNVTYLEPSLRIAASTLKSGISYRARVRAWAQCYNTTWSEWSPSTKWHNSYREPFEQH
Nature of the assay: Octet BLI off-rate analysis, antibody on AHC sensors. The protocol: (§1) All off-rate measurements were performed on an Octet Qk384 instrument (ForteBio), in 96-well microplates at 25° C. using anti-human IgG Fc capture (AHC, 18-5005) sensors with a shake speed of 1000 rpm. For off-rate determination, the antibodies were loaded on the AHC sensors at 5 µg/mL. Following a short baseline in kinetics buffer (0.02% Tween20, 0.1% BSA, 0.05% sodium azide, 1X PBS). Offrate measurements were done for the following: human IL-2Rβ (AcroBiosystems), human IL- 2Ry (Sino Biological), cynomolgus IL-2Rβ (Sino Biological), cynomolgus IL-2Rγ (expressed and purified in house using ExpiCHO expression system followed by Ni-NTA His-tag purification), mouse IL-2Rγ (Sino Biological), mouse IL-2Rβ (Sino Biological), human IL-2Rα (Sino Biological), IL-4R (Sino Biological), IL-7R (Sino Biological), IL-9R (R&D Systems) and IL-21R (Sino Biological). The following antibodies were used as positive controls to verify target binding and reagent quality: anti-human IL-9R (R&D Systems), anti-human IL-21R (R&D Systems), anti-human IL-7R (R&D Systems) and anti-human IL-4Ra (R&D Systems). The loaded sensors were then submerged in wells containing antigen at 100 nM concentration for association step. Dissociation was monitored in kinetics buffer. The capture surfaces were regenerated for 60 s. ForteBio data analysis software was used to fit the data to a 1:1 binding model to extract an association rate and dissociation rate.

Assay [2] deals with T2, human IL-2Rα (Sino Biological) (human, UniProt P01589 22-213, limits assumed).
T2 construct: also called IL2RA; IL-2RA
T2 sequence: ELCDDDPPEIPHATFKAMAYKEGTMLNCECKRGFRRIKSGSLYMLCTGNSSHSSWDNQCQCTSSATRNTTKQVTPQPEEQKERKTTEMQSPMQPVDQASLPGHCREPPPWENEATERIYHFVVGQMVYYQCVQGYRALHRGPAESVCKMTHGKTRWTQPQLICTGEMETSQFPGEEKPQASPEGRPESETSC
Described as above. How it is done:
as §1

A further assay addresses IL-21R (Sino Biological) (UniProt Q9HBE5 20-232). The assay is described as above. How it is done: as §1
The target in another assay is T3, IL-7R (Sino Biological) (UniProt P16871 21-239).
T3 sequence (looked up): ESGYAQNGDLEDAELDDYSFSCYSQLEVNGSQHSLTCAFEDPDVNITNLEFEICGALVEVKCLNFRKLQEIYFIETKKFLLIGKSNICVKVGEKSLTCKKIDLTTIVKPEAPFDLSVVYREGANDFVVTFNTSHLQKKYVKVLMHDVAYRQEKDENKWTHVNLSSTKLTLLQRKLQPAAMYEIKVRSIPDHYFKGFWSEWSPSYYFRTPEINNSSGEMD
The assay is described as above. How it is done: as §1

The next assay deals with T4, IL-9R (R&D Systems) (UniProt Q01113 41-270, limits assumed).
T4 sequence (looked up): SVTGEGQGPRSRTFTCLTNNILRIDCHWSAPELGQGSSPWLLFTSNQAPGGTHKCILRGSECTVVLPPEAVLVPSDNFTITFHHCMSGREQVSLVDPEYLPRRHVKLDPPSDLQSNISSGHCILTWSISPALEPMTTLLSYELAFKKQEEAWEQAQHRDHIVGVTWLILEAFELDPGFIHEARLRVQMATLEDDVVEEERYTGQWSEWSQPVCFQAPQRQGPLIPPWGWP
The assay is described as above. How it is done: as §1

Sequence of cynomolgus IL-2Rβγ receptor (IL-2RB / IL-2RG) on cynomolgus T-cells (Q38J85 27-551): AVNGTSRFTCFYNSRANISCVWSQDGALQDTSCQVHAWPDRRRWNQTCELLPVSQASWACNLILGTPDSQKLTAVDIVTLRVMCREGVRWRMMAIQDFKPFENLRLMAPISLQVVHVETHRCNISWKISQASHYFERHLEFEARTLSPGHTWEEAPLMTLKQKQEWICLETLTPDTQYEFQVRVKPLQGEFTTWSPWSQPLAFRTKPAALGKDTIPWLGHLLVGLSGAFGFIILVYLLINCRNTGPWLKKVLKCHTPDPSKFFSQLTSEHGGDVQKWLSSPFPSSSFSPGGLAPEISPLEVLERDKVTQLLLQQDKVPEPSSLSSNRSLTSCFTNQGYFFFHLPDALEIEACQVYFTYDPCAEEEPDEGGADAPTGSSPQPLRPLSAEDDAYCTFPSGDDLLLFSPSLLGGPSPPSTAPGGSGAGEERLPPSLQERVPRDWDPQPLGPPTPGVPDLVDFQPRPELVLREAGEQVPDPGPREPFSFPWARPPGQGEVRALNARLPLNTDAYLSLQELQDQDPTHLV
Sequence of IL-21R (Sino Biological) (Q9HBE5 20-232 limits assumed): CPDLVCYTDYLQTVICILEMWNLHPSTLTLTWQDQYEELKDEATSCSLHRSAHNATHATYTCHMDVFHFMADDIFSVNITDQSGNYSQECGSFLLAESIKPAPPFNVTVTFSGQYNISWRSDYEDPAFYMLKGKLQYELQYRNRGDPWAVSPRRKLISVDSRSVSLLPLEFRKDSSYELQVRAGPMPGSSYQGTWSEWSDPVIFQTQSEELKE

B1: IL2RB_F09K**IL2RG_F16B (bispecific antibody, human IgG4, V domains shown)
V domain 1: QVQLQESSPGLVKPSETLSLTCTVSGGSISSSNWWSWVRQPPGKGLEWIGEISHSGSTNYNPSLKSRVTISVDKSKNQFSLRLSSVTAADTAVYFCGRGSWELTDAFDIRGQGTLVTVSS
V domain 2: QVQLVESGGGLVKPGGSLRLSCAASGFTFSDYYMSWIRQAPGKGLEWVSYISSSGSTIYYADSVKGRFTISRDNAKNSLYLQMNSLRAEDTAVYYCARGDAVSITGDYRGQGTLVTVSS
notes: Bispecific heavy chain-only UniAb on silenced, stabilized human IgG4 Fc without CH1, knobs-into-holes; also called BsAb-5; not shown: C-terminal His-tag on the knob chain
Take B1: the half-maximal effective concentration (EC50 (read off the curve)) – broadly, the concentration at which the effect is half-maximal – in assay [1] is ~5 nM. The binding result (in the assay with IL-4R (Sino Biological); in assay [2]; in the assay with IL-21R (Sino Biological); in the assay with IL-7R (Sino Biological); with IL-9R (R&D Systems)) was “no binding (tested: 100 nM antigen)” in each case.
